From the nanobody polyreactivity screen of Harvey et al. (2022)

assay: yeast display, Sf9 membrane polyspecificity reagent, FACS + sequencing; frameworks hold sequencing errors
Summary of the method: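 Nanobodies came from a synthetic yeast display library in Saccharomyces cerevisiae BJ5465, induced with galactose for 36–48 hours and stained for 1 hour at 4 °C with 10% biotinylated, detergent-solubilized Sf9 membrane reagent. Cells were enriched on streptavidin microbeads and then FACS-sorted, with low and high (top ~1%) gates set on anti-HA fluorescence for expression and streptavidin fluorescence for reagent binding. Each polyreactivity label reflects the gate a clone came from. Genes were amplified by colony PCR, sequenced by MiSeq 2 × 250 and filtered by CDR length.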

Sequence | polyreactivity (PSR sort gate)
QVQLVESGGGLVQAGGSLRLSCAASGRTFRRYVMGWYRQAPGKERELVAAISYSGATTYYADSVKGRFTISRDNAKNTVYLQMNSLKPEDTAVYYCAATAPGDRYYWGQGTQVTVSS | high polyreactivity
QVQLVESGGGLVQAGGSLRLSCAASGRTFRSIAMGWYRKAPGKERELVAAITSSGGRTYYADSVKGRFTISRDNAKNTVYVQMNSLTPEDTAVYYCNAGRQHPPRYSSYDYWGQGTQVTVSS | high polyreactivity
QVQLVESGGGLVQAGGSLRLSCAASGRTFRSNAMGWYRQAPGKEREFVAAISSGGSTKYADSVKGRFTISRDNAKNTVYLQMNSLKPEDTAVYYCAAVSHSRYWGEGTQVTVSS | high polyreactivity
QVQLVESGGGLVQAGGSLRLSCAASGRTFRSNTMGWYRQAPGKEREFVAVITYSAGSTYYADSVKGRFTISRDNAKNTVYLQMNSLKPEDTAVYYCAATSKYRGDYWGQGTQVTVSS | high polyreactivity
QVQLVESGGGLVQAGGSLRLSCAASGRTFRSYAMGWYRQAPGKERELVAAISSGGSTNYADSVKGRFTISRDNAKNTVYLQMNSLKPEDTAVYYCNKVVHSFRFPYRYDMDYWGQGTQVTVSS | high polyreactivity
QVQLVESGGGLVQAGGSLRLSCAASGRTFRSYAMGWYRQAPGKERELVVAISLSGGSTYYADSVKGRFTISRDNAKNTVYLQMNSLKPVDTAVYYCNADLIKGTYRWYEGGSQYGYWGQGTQVTVSS | low polyreactivity
QVQLVESGGGLVQAGGSLRLSCAASGRTFRSYDMGWYRQAPGKERELVAAISEDGGYTYYADSVKGRFTISRDNAKNSVYLQMNSVKPEDTAVYYCAKDRPGPLRWWFLYGYWGQGTQVTVSS | low polyreactivity
QVQLVESGGGLVQAGGSLRLSCAASGRTFRTNAMGWYRQAPGKERELVAAITSDGTYYADSVKGRFTISRDNAKKTVYLQMNSLKPEDTAVYYCNVDDRETRDDYWGQGTQVTVSS | low polyreactivity
QVQLVESGGGLVQAGGSLRLSCAASGRTFRTNVMGGYIQAPGKERELVADISKRGGSTYYADSVKGRFTISRDNAMNTVYVQINSQKPDDTAVYYCAADYSPYYYHQGDYWGQGTQVTVSS | high polyreactivity
QVQLVESGGGLVQAGGSLRLSCAASGRTFRTNVMGWYRQAPGKERELVAAISKRGGSTYYADSVKGRFTISRDNAKYTVYLQMNILNPEDTAGYYCAAVFSPYYDHQGDYWGQGTQVTVSS | high polyreactivity
QVQLVESGGGLVQAGGSLRLSCAASGRTFRTYAMGWYRQAPGKERELVAAITSRAGSTYYADSVKGRFTISRDNAKNSVYLQMNSLKPEDTAVYYCAKQYYYGWYWGEDYWGQGTQVTVSS | low polyreactivity
QVQLVESGGGLVQAGGSLRLSCAASGRTFRVNAMGWYRQAPGKERELVASITYSGGSTYYADSVKGRFTISRDNAKNTVYLQMNSLKQEDTAVYYCAADWYRSPYDYWGQGTQVTVSS | low polyreactivity
QVQLVESGGGLVQAGGSLRLSCAASGRTFRVNTMGWYRQAPGQEWELVAAITSSDRTYYADSVKGRFTISRDNAKNTVYLQMNSLKPDDTAVYYCAAYSEYYGVYYWGQGTQVTVSS | low polyreactivity
QVQLVESGGGLVQAGGSLRLSCAASGRTFRVYAMGWYRQAPGKERELVAAIRSGGNTNYADSVKGRFTISRDNAKNTVYLQMNSLKPEDTAVYYCAATTYVVASRYVGTLGDDYWGQGTQVTVSS | high polyreactivity
QVQLVESGGGLVQAGGSLRLSCAASGRTFRVYAMGWYRQAPGKERELVATITSSGGSTYYADSVKGRFTISRDNAKNTVYLQMNSLKPEDTAVYYCNVSVYYNYDSSYYYWGQGTQVTVSS | low polyreactivity
QVQLVESGGGLVQAGGSLRLSCAASGRTFRVYTMGWYRQAPGKERELVAVISGRGGSTSYADSVKGRFTISRDNAKNTVDLQMNSLKPEDTAVYYCAARGRAHWHYDYWGQGTQVTVSS | high polyreactivity
QVQLVESGGGLVQAGGSLRLSCAASGRTFRYKAMGWYRQAPGKERELVAAITYSGGITYYADSVKGRFTISRDNAKNTVYLQMNSLKPEDTAVYYCAADDPYRTTYEYDYWGQGTQVTVSS | low polyreactivity
QVQLVESGGGLVQAGGSLRLSCAASGRTFRYNAKGSYIQAPGKERELVAAINWNGGSTYYADSVKGSFTISRDNAKNTVYLQMNSLKQEDTAVYYCNADFYHRYDWGQGTQVSVSS | high polyreactivity
QVQLVESGGGLVQAGGSLRLSCAASGRTFRYNAMGWYRQAPGKERELVAAISRGANTNYADSVKGRFTISRDNAKNTVYLQMNSLKPADTAVYYCAAVPGYRFYYWGQGTQVTVSS | high polyreactivity
QVQLVESGGGLVQAGGSLRLSCAASGRTFRYNAMGWYRQAPGKERELVAAISRGANTNYADSVKGRFTISRDNAKNTVYLQMNSLKPEDTAVYYCAAVPGYRFYYWGQGTQVTVSS | high polyreactivity
QVQLVESGGGLVQAGGSLRLSCAASGRTFRYNAMGWYRQAPGKERELVASIRRGGSTNYADSVKGRFTISRDNAKNTVYLQMNRLKPEDTAVYYCAAGGYYWGQGTQVTVSS | high polyreactivity
QVQLVESGGGLVQAGGSLRLSCAASGRTFRYNAMVWFRQAPGKERELVAAISSGDRTNYADSVKGRFTISRDNAKNTVYLQMNSLKPEDTAVYYCAAPTDSYYEFDYWGQGTQVTVSS | low polyreactivity
QVQLVESGGGLVQAGGSLRLSCAASGRTFRYNGMGWYRQAPGKERELVAAITLRDGRTYYADSVKGRITISRDNPKNTVNIQMNSLIPEHTAVYYCALEYWVVNAQGNDYWGQGTQVSVSS | high polyreactivity
QVQLVESGGGLVQAGGSLRLSCAASGRTFRYNTMGWYRQAPGKERELVAAITKGAASTYYADSVKGRFTISRDNAKNTVYLQMNSLKPEDTAVYYCNAVYSRIVTQKYWGQGTQVTVSS | high polyreactivity
QVQLVESGGGLVQAGGSLRLSCAASGRTFRYYAMGLYRQAPGKERELVAAIRSGGTTYYADSVKGRFTISRDNAKNTVYLQMNSLKPEDTAVYYCAADGGKGGIRFGYWGQGTQVTVSS | high polyreactivity
QVQLVESGGGLVQAGGSLRLSCAASGRTFRYYAMGWYRQAPGKEREFVAAITSRSSRTYYADSVKGRFTISRDNAKNTVYLQMNSLKPEDTAVYYCNADYRRYPEFDYWGQGTQVTVSS | high polyreactivity
QVQLVESGGGLVQAGGSLRLSCAASGRTFRYYAMGWYRQAPGKERELVAAISASGGSTFYADSVKGRFTISRDNAKNTVYLLMNSLKPEDTAVYYCAAYHYSVFPYKQYDYWGQGTQVTVSS | high polyreactivity
QVQLVESGGGLVQAGGSLRLSCAASGRTFRYYAMGWYRQAPGKERELVAAISSSGDRTYYADSVKGRFTISRDNAKNTVYLQMNSLKPEDTAVFYCAADRGARGDYWGQGTQVTVSS | high polyreactivity
QVQLVESGGGLVQAGGSLRLSCAASGRTFRYYAMGWYRQAPGKERELVAAISWSGSSTYYADSVKGRFTISRDNAKNTVYLQMNSLKAEDTAVYFCNAKGVRGKYFDYSRVSAYDYWGQGTQVTVSS | low polyreactivity
QVQLVESGGGLVQAGGSLRLSCAASGRTFRYYAMGWYRQAPGKERELVAAITISSGSTYYADSVKGRFTISRDNAKNTVYLQMNSLKPEDTAVYYCAATRRYHFDYWGQGTQVTVSS | high polyreactivity
